Data on four molecules can be found in PMC4769319, “Cohesin Releases DNA through Asymmetric ATPase-Driven Ring Opening” (Molecular Cell, 2016).

Where a chain is given by its changes, count along the chain named. In names and notes the source's numbering stands.

T1: full-length StrepII-Smc3 (wild-type) (S. cerevisiae, UniProt P47037 1-1230)
T1 construct: Smc3, S. cerevisiae, full length; source: Sf9 insect cells, expressed alone, purified (Strep-II tag purification, size-exclusion chromatography)
T1 sequence (looked up): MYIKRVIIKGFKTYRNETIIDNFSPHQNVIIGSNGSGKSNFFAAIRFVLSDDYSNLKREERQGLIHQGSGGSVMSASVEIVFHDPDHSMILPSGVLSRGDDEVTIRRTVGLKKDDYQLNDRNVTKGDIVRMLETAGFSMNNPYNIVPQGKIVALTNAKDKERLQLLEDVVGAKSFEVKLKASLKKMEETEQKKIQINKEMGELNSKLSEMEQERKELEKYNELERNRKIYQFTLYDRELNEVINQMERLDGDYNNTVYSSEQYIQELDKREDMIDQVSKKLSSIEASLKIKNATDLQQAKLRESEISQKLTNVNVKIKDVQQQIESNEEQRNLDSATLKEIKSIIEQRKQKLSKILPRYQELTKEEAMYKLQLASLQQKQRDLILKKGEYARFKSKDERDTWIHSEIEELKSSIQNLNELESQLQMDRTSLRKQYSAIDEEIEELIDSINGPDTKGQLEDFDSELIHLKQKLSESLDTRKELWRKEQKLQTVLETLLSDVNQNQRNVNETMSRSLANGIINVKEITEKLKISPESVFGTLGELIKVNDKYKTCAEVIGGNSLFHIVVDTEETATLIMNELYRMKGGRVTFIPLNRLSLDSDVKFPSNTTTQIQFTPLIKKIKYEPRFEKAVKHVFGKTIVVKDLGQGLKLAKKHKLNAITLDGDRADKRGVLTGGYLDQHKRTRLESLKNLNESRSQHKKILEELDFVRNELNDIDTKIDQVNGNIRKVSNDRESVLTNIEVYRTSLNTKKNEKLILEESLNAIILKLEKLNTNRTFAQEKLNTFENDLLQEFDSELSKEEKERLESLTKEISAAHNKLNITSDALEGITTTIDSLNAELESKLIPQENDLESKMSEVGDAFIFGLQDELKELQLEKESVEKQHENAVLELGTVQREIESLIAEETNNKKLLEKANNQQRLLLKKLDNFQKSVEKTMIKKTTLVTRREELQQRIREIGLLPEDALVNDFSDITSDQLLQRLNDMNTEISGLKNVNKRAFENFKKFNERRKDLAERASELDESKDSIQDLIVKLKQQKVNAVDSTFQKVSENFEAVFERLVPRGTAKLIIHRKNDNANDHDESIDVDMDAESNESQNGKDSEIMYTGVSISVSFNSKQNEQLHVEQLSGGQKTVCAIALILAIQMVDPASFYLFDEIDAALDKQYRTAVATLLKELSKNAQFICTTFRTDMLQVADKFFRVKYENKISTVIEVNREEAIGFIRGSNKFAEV

B1: full-length HIS6-Smc1 (wild-type) (natural protein, S. cerevisiae, UniProt P32908 1-1225, looked up)
chain: MGRLVGLELSNFKSYRGVTKVGFGESNFTSIIGPNGSGKSNMMDAISFVLGVRSNHLRSNILKDLIYRGVLNDENSDDYDNEGAASSNPQSAYVKAFYQKGNKLVELMRIISRNGDTSYKIDGKTVSYKDYSIFLENENILIKAKNFLVFQGDVEQIAAQSPVELSRMFEEVSGSIQYKKEYEELKEKIEKLSKSATESIKNRRRIHGELKTYKEGINKNEEYRKQLDKKNELQKFQALWQLYHLEQQKEELTDKLSALNSEISSLKGKINNEMKSLQRSKSSFVKESAVISKQKSKLDYIFKDKEKLVSDLRLIKVPQQAAGKRISHIEKRIESLQKDLQRQKTYVERFETQLKVVTRSKEAFEEEIKQSARNYDKFKLNENDLKTYNCLHEKYLTEGGSILEEKIAVLNNDKREIQEELERFNKRADISKRRITEELSITGEKLDTQLNDLRVSLNEKNALHTERLHELKKLQSDIESANNQEYDLNFKLRETLVKIDDLSANQRETMKERKLRENIAMLKRFFPGVKGLVHDLCHPKKEKYGLAVSTILGKNFDSVIVENLTVAQECIAFLKKQRAGTASFIPLDTIETELPTLSLPDSQDYILSINAIDYEPEYEKAMQYVCGDSIICNTLNIAKDLKWKKGIRGKLVTIEGALIHKAGLMTGGISGDANNRWDKEEYQSLMSLKDKLLIQIDELSNGQRSNSIRAREVENSVSLLNSDIANLRTQVTQQKRSLDENRLEIKYHNDLIEKEIQPKITELKKKLDDLENTKDNLVKEKEALQNNIFKEFTSKIGFTIKEYENHSGELMRQQSKELQQLQKQILTVENKLQFETDRLSTTQRRYEKAQKDLENAQVEMKSLEEQEYAIEMKIGSIESKLEEHKNHLDELQKKFVTKQSELNSSEDILEDMNSNLQVLKRERDGIKEDIEKFDLERVTALKNCKISNINIPISSETTIDDLPISSTDNEAITISNSIDINYKGLPKKYKENNTDSARKELEQKIHEVEEILNELQPNARALERYDEAEGRFEVINNETEQLKAEEKKILNQFLKIKKKRKELFEKTFDYVSDHLDAIYRELTKNPNSNVELAGGNASLTIEDEDEPFNAGIKYHATPPLKRFKDMEYLSGGEKTVAALALLFAINSYQPSPFFVLDEVDAALDITNVQRIAAYIRRHRNPDLQFIVISLKNTMFEKSDALVGVYRQQQENSSKIITLDLSNYAE
notes: Smc1, S. cerevisiae, full length; Always co-expressed and co-purified with StrepII-Scc1-C; vector pFastBac NKI-LIC; details in Supplemental Experimental Procedures; not shown: His6, N-terminal, kept
B2: full-length HIS6-Smc1 D1164E (natural protein, S. cerevisiae, UniProt P32908 1-1225, looked up)
chain: B1 chain with D1164E
notes: Smc1, S. cerevisiae, full length, D-loop mutant; Co-purified with StrepII-Scc1-C; also called D-loop mutant D1164E; not shown: His6, N-terminal, kept
B3: full-length HIS6-Smc1 K39I (natural protein, S. cerevisiae, UniProt P32908 1-1225, looked up)
chain: B1 chain with K39I
notes: Smc1, S. cerevisiae, full length, Walker A mutant; Co-purified with StrepII-Scc1-C; also called Walker A mutant Smc1 K39I; not shown: His6, N-terminal, kept
B4: full-length HIS6-Smc1 L1129V (natural protein, S. cerevisiae, UniProt P32908 1-1225, looked up)
chain: B1 chain with L1129V
notes: Smc1, S. cerevisiae, full length, Signature motif mutant; Co-purified with StrepII-Scc1-C; also called Signature motif mutant L1129V; not shown: His6, N-terminal, kept

The assay concerns the target T1, full-length StrepII-Smc3 (wild-type). Nature of the assay: scanning force microscopy; full-length Smc1 co-incubated with full-length Smc3 in the presence of ATP, seeded on mica; V shapes and ring shapes counted as heterodimers. Particulars: both partners purified.
In the case of B1, the binding result is “binds”. For B2 the value was “binds”; for B3, “binds”.

With B4, the binding result was “binds”.
